2 molecules from patent US6638941B1, “Conformationallly constrained peptidomimetics as β-turn templates and modulators of SH3 domains” (OSI Pharmaceuticals, Inc., priority 1997, dated 2003) can be followed below.

The target of test [1] is T1, Lyn SH3 domain (Homo sapiens, UniProt P07948).
T1 construct: Lyn SH3-GST fusion proteins were generated as previously described; made in house
Put plainly: Inhibition of Lyn SH3-GST fusion protein binding to immobilized p85 proline-rich peptide, surface plasmon resonance (BIAcore). The settings on record: Lyn SH3-GST fusion protein (1 μM) incubated with 0.01-100 μM spirolactam or non-biotinylated canonical peptide prior to injection; 25° C.; concentration behind the values not stated. As to the method: The ability of spirolactams to bind to SH3 domains was assessed by measuring their ability to inhibit the binding of cononical proline-rich peptide to purified Lyn SH3 domain. This inhibition was measured by surface plasmon resonance.
Lyn SH3-GST fusion proteins were generated as previously described (Pleiman, et al., Mol & Cellular Biol. 13(9):5877 (1993)), purified from bacterial lysates by glutathione affinity chromatography and eluted by competition. Aggregates were removed by size exclusion chromatography on Sephadex 75 (Pharmacia Biotech, Uppsala, Sweden).
Surface plasmon resonance measurements were performed on a BIAcore 2000 biosensor (BIAcore AB, Uppsala, Sweden). A synthetic canonical proline-rich peptide derived from phosphatidylinositol 3 kinase p85 (Pleiman, et al., (1994) Science 263:1609 (1994)); GGGKPRPPRPLPVAPGSS (SEQ ID NO:5) was immobilized on a prepared streptavidin coated sensor chip (Sensor Chip SA, BIAcore AB) via an N-terminal biotin moiety at a density of 0.05 pmol/mm^2. […] Dissociation was monitored during subsequent washing of the chip with running buffer for an additional 5.0 minutes. […]
To test their activity, 0.01-100 μM spirolactam or non-biotinylated canonical peptide was incubated with the fusion protein prior to injection. Data were recorded in real-time as sensorgrams and analyzed subsequently using BIA evaluation 2.0 software (BIAcore AB).
(In general: SPR reads the build-up and loss of mass on a sensor chip optically.)

The target of test [2] is Lyn SH3-GST fusion protein. As to the kind of experiment: SPR competition, compound (0.01-100 uM) incubated with Lyn SH3-GST before injection over immobilized biotinylated p85 peptide.

T1 sequence (P07948 63-123 limits assumed): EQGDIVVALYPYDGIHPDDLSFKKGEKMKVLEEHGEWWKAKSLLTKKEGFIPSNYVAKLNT

Regarding “Ac-GGGKPRPPRPLPVAPGSS-OH [Ac-GGGKPRPPRPLPVAP-GSS-OH, non-biotinylated canonical proline-rich peptide derived from phosphatidylinositol 3 kinase p85, reference compound]”, in test [1], the “Percent Binding (Relative binding affinity to SH3 domain)” value is 81%.

B1: Ac-…-OH (peptide)
peptide: Ac-GGGKPRPPRPLPVAPGSS-OH
For the molecule B1, in test [2], the Percent Binding was 81%.
